In patent US20080105961A1, “Ligands of the Molecule Fit (Agt-121) and their Pharmaceutical Use” (priority 2004, published 2008):
Marks after values point to notes of the source that are not given here. Each block holds one molecule with its values, some of them ahead of it.

Columns and labels:
[1] = target: T1, FIT-NP (FIT N-terminal plus proline-rich region) (Homo sapiens, UniProt Q9BQI5); experiment: Yeast two-hybrid screen of human brain cDNA library, bait FIT-NP; type: binding; conditions: for Number of clones: bait FIT-NP, human brain cDNA library, clones listed highest to lowest interacting strength; for strength of interaction with FIT: in yeast
T1 construct: expressed in transfected cells
T1 sequence (Q9BQI5 with tags, fused parts or gaps I33M/P40L/N43H/V56A/I186T/P191L/T195L/E211G/Q212H/I230V/T240A/N255T/I269V/G270A/P271T/S276A/V280A/L285P/N289S/A308T/K311T/T318A/S335T/T339A/P340S/N342I/A348T/L352P/P357S/T358A/DEL367-367/L371P/I397L/D402E/F403C/A409E/P432S/P434T/T437A/R454S/S455C/T456S): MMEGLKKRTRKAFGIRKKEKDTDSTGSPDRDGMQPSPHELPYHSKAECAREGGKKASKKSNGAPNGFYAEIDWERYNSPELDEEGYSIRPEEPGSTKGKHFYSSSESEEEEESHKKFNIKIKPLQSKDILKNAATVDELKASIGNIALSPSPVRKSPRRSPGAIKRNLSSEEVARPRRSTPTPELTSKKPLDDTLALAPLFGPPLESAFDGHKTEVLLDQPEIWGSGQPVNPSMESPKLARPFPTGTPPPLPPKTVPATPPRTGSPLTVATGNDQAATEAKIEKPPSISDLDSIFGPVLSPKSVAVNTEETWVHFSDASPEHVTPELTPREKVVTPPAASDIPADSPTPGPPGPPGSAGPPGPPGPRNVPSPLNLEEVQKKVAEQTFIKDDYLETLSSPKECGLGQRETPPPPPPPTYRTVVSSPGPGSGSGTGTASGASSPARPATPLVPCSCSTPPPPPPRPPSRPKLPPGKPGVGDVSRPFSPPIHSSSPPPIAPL
Excerpt: (§1) In order to perform these experiments, two truncated fragments of FIT were constructed to be used as baits in a yeast two-hybrid screen of a human brain cDNA library: one bait consisting of the N-terminal region plus the central proline-rich region, and the other bait consisting of the central proline-rich region alone. The inventors utilised a yeast two-hybrid system which incorporates modifications by Chevray and Nathans (1992), and Vidal et al. (1996) to screen a human brain cDNA library. FIT fragments were PCR amplified, purified and then cloned into an appropriate vector. Sense oligonucleotides for FIT-NP (5′-[…]-3′: SEQ ID NO:72), and FIT-PR (5′-[…]-3′: SEQ ID NO:73), with Sal1 restriction enzyme sites underlined, were used in conjunction with a common antisense oligonucleotide (5′-[…]-3′: SEQ ID NO:74), with the Not1 restriction enzyme site underlined.
(§2) Human brain cDNA inserts were prepared and cloned into the expression vector according to manufacturer's instructions.

melanocortin receptor = experiment: Feeding response to ICV injection of SHU9119 after three days of ODN or saline infusion; type: in vivo, Sprague Dawley rats; conditions: mean ± SEM
Excerpt: To further analyse the link between FIT and the melanocortin system, the feeding response of Sprague Dawley rats to an ICV injection of SHU9119, a melanocortin receptor antagonist and known feeding stimulator was investigated. After three days of FIT antisense treatment, jumbled oligonucleotide or saline infusion, responses were compared to rats receiving an ICV injection of saline vehicle rather than SHU9119.

[2] = target: T2, FIT-PR (FIT proline-rich region) (Homo sapiens, UniProt Q9BQI5); experiment: Yeast two-hybrid screen of human brain cDNA library, bait FIT-PR; type: binding; conditions: clones listed highest to lowest interacting strength
T2 construct: expressed in transfected cells
T2 sequence (Q9BQI5 with tags, fused parts or gaps N255T/I269V/G270A/P271T/S276A/V280A/L285P/N289S/A308T/K311T/T318A/S335T/T339A/P340S/N342I/A348T/L352P/P357S/T358A/DEL367-367/L371P/I397L/D402E/F403C/P432S/P434T/T437A/R454S/S455C/T456S): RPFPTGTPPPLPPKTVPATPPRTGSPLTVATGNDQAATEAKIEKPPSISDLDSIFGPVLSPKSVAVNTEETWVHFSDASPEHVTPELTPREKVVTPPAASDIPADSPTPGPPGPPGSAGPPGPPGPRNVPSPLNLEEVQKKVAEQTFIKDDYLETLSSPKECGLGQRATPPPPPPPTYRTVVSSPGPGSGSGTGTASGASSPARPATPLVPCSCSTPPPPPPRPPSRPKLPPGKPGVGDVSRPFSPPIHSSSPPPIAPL
Excerpt: as §1, with “To investigate the mechanism by which FIT regulates energy balance, neural proteins that interact with FIT were identified. In” for “In”
as §2

Molecule: SHU9119
Δ FI (melanocortin receptor; 48 hr food intake post minus pre injection): 0.02 ± 0.01 g/g BW | 48 hr FI post injection (melanocortin receptor; food intake relative to body weight, after ICV SHU9119 or vehicle injection): 0.16 ± 0.01^a g/g BW | 48 hr FI pre injection (melanocortin receptor; food intake relative to body weight, during ICV infusion, before SHU9119 or vehicle injection): 0.14 ± 0.01 g/g BW

Molecule: β-arrestin 1: FIT interacting protein isolated from a human brain cDNA library
Number of clones [1]: 1 | strength of interaction with FIT [1]: slightly lesser strength

B1: α-2 subunit of the AP2 complex: FIT interacting protein isolated from a human brain cDNA library (protein)
chain: MPAVSKGDGMRGLAVFISDIRNCKSKEAEIKRINKELANIRSKFKGDKALDGYSKKKYVCKLLFIFLLGHDIDFGHMEAVNLLSSNRYTEKQIGYLFISVLVNSNSELIRLINNAIKNDLASRNPTFMGLALHCIASVGSREMAEAFAGEIPKVLVAGDTMDSVKQSAALCLLRLYRTSPDLVPMGDWTSRVVHLLNDQHLGVVTAATSLITTLAQKNPEEFKTSVSLAVSRLSRIVTSASTDLQDYTYYFVPAPWLSVKLLRLLQCYPPPDPAVRGRLTECLETILNKAQEPPKSKKVQHSNAKNAVLFEAISLIIHHDSEPNLLVRACNQLGQFLQHRETNLRYLALESMCTLASSEFSHEAVKTHIETVINALKTERDVSVRQRAVDLLYAMCDRSNAPQIVAEMLSYLETADYSIREEIVLKVAILAEKYAVDYTWYVDTILNLIRIAGDYVSEEVWYRVIQIVINRDDVQGYAAKTVFEALQAPACHENLVKVGGYILGEFGNLIAGDPRSSPLIQFHLLHSKFHLCSVPTRALLLSTYIKFVNLFPEVKPTIQDVLRSDSQLRNADVELQQRAVEYLRLSTVASTDILATVLEEMPPFPERESSILAKLKKKKGPSTVTDLEDTKRDRSVDVNGGPEPAPASTSAVSTPSPSADLLGLGAAPPAPAGPPPSSGGSGLLVDVFSDSASVVAPLAPGSEDNFARFVCKNNGVLFENQLLQIGLKSEFRQNLGRMFIFYGNKTSTQFLNFTPTLICSDDLQPNLNLQTKPVDPTVEGGAQVQQVVNIECVSDFTEAPVLNIQFRYGGTFQNVSVQLPITLNKFFQPTEMASQDFFQRWKQLSNPQQEVQNIFKAKHPMDTEVTKAKIIGFGSALLEEVDPNPANFVGAGIIHTKTTQIGCLLRLEPNLQAQMYRLTLRTSKEAVSQRLCELLSAQF
modifications: left off: large carriers
Number of clones [1]: 1 | strength of interaction with FIT [1]: slightly lesser strength

B3: endophilin 3: FIT interacting protein isolated from a human brain cDNA library (protein)
chain: MSVAGLKKQFHKASQLFSEKISGAEGTKLDDEFLDMERKIDVTNKVVAEILSKTTEYLQPNPAYRAKLGMLNTVSKIRGQVKTTGYPQTEGLLGDCMLKYGKELGEDSTFGNALIEVGESMKLMAEVKDSLDINVKQTFIDPLQLLQDKDLKEIGHHLKKLEGRRLDYDYKKKRVGKIPDEEVRQAVEKFEESKELAERSMFNFLENDVEQVSQLAVFIEAALDYHRQSTEILQELQSKLQMRISAASSVPRREYKPRPVKRSSSELNGVSTTSVVKTTGSNIPMDQPCCRGLYDFEPENQGELGFKEGDIITLTNQIDENWYEGMIHGESGFFPINYVEVIVPLPQ
modifications: left off: large carriers
Number of clones [2]: 2 | Number of clones [1]: 7 | strength of interaction with FIT [1]: very strongly

B5: RNA-binding protein EWS: FIT interacting protein isolated from a human brain cDNA library (protein)
chain: MASTDYSTYSQAAAQQGYSAYTAQPTQGYAQTTQAYGQQSYGTYGQPTDVSYTQAQTTATYGQTAYATSYGQPPTGYTTPTAPQAYSQPVQGYGTGAYDTTTATVTTTQASYAAQSAYGTQPAYPAYGQQPAATAPTRPQDGNKPTETSQPQSSTGGYNQPSLGYGQSNYSYPQVPGSYPMQPVTAPPSYPPTSYSSTQPTSYDQSSYSQQNTYGQPSSYGQQSSYGQQSSYGQQPPTSYPPQTGSYSQAPSQYSQQSSSYGQQSSFRQDHPSSMGVYGQESGGFSGPGENRSMSGPDNRGRGRGGFDRGGMSRGGRGGGRGGMGSAGERGGFNKPGGPMDEGPDLDLGPPVDPDEDSDNSAIYVQGLNDSVTLDDLADFFKQCGVVKMNKRTGQPMIHIYLDKETGKPKGDATVSYEDPPTAKAAVEWFDGKDFQGSKLKVSLARKKPPMNSMRGGLPPREGRGMPPPLRGGPGGPGGPGGPMGRMGGRGGDRGGFPPRGPRGSRGNPSGGGNVQHRAGDWQCPNPGCGNQNFAWRTECNQCKAPKPEGFLPPPFPPPGGDRGRGGPGGMRGGRGGLMDRGGPGGMFRGGRGGDRGGFRGGRGMDRGGFGGGRRGGPGGPPGPLMEQMGGRRGGRGGPGKMDKGEHRQERRDRPY
modifications: left off: large carriers
Number of clones [1]: 1

Second part, the molecule after the results:

Number of clones [1]: 1
Molecule: MAD2: FIT interacting protein isolated from a human brain cDNA library

Number of clones [2]: 12 | Number of clones [1]: 14 | strength of interaction with FIT [1]: very strongly
B2: endophilin 1: FIT interacting protein isolated from a human brain cDNA library (protein)
chain: MSVAGLKKQFHKATQKVSEKVGGAEGTKLDDDFKEMERKVDVTSRAVMEIMTKTIEYLQPNPASRAKLSMINTMSKIRGQEKGPGYPQAEALLAEAMLKFGRELGDDCNFGPALGEVGEAMRELSEVKDSLDIEVKQNFIDPLQNLHDKDLREIQHHLKKLEGRRLDFDYKKKRQGKIPDEELRQALEKFDESKEIAESSMFNLLEMDIEQVSQLSALVQAQLEYHKQAVQILQQVTVRLEERIRQASSQPRREYQPKPRMSLEFPTGDSTQPNGGLSHTGTPKPSGVQMDQPCCRALYDFEPENEGELGFKEGDIITLTNQIDENWYEGMLHGHSGFFPINYVEILVALPH
modifications: left off: large carriers

Number of clones [1]: 8 | strength of interaction with FIT [1]: slightly lesser strength
B4: α-1 subunit of the AP2 complex: FIT interacting protein isolated from a human brain cDNA library (protein)
chain: MPAVSKGDGMRGLAVFISDIRNCKSKEAEIKRINKELANIRSKFKGDKALDGYSKKKYVCKLLFIFLLGHDIDFGHMEAVNLLSSNKYTEKQIGYLFISVLVNSNSELIRLINNAIKNDLASRNPTFMCLALHCIANVGSREMGEAFAADIPRILVAGDSMDSVKQSAALCLLRLYKASPDLVPMGEWTARVVHLLNDQHMGVVTAAVSLITCLCKKNPDDFKTCVSLAVSRLSRIVSSASTDLQDYTYYFVPAPWLSVKLLRLLQCYPPPEDAAVKGRLVECLETVLNKAQEPPKSKKVQHSNAKNAILFETISLIIHYDSEPNLLVRACNQLGQFLQHRETNLRYLALESMCTLASSEFSHEAVKTHIDTVINALKTERDVSVRQRAADLLYAMCDRSNAKQIVSEMLRYLETADYAIREEIVLKVAILAEKYAVDYSWYVDTILNLIRIAGDYVSEEVWYRVLQIVTNRDDVQGYAAKTVFEALQAPACHENMVKVGGYILGEFGNLIAGDPRSSPPVQFSLLHSKFHLCSVATRALLLSTYIKFINLFPETKATIQGVLRAGSQLRNADVELQQRAVEYLTLSSVASTDVLATVLEEMPPFPERESSILAKLKRKKGPGAGSALDDGRRDPSSNDINGGMEPTPSTVSTPSPSADLLGLRAAPPPAAPPASAGAGNLLVDVFDGPAAQPSLGPTPEEAFLSELEPPAPESPMALLADPAPAADPGPEDIGPPIPEADELLNKFVCKNNGVLFENQLLQIGVKSEFRQNLGRMYLFYGNKTSVQFQNFSPTVVHPGDLQTQLAVQTKRVAAQVDGGAQVQQVLNIECLRDFLTPPLLSVRFRYGGAPQALTLKLPVTINKFFQPTEMAAQDFFQRWKQLSLPQQEAQKIFKANHPMDAEVTKAKLLGFGSALLDNVDPNPENFVGAGIIQTKALQVGCLLRLEPNAQAQMYRLTLRTSKEPVSRHLCELLAQQF
modifications: left off: large carriers
